Assay results published in IntAct's records for PubMed 25910212.

B1: Emerin (Homo sapiens), P50402 (parent)
chain: MDNYADLSDTELTTLLRRYNIPHGPVVGSTRRLYEKKIFEYETQRRRLSPPSSSAASSYSFSDLNSTRGDADMYDLPKKEDALLYQSKGYNDDYYEESYFTTRTYGEPESAGPSRAVRQSVTSFPDADAFHHQVHDDDLLSSSEEECKDRERPMYGRDSAYQSITHYRPVSASRSSLDLSYYPTSSSTSFMSSSSSSSSWLTRRAIRPENRAPGAGLGQDRQVPLWGQLLLFLVFVIVLFFIYHFMQAEEGNPF
partner: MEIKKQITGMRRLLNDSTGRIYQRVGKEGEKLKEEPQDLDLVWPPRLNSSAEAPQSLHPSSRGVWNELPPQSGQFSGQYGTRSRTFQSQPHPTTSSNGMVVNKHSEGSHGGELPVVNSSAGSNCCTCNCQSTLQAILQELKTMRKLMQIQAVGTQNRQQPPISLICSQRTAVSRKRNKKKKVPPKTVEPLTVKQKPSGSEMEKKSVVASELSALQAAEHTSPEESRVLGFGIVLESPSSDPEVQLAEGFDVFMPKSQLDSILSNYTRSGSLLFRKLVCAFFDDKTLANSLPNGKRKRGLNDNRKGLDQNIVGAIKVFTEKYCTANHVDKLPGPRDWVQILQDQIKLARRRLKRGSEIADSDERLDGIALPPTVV
B2: U4/U6 small nuclear ribonucleoprotein Prp31 (Homo sapiens), Q8WWY3 (parent)
chain: MSLADELLADLEEAAEEEEGGSYGEEEEEPAIEDVQEETQLDLSGDSVKTIAKLWDSKMFAEIMMKIEEYISKQAKASEVMGPVEAAPEYRVIVDANNLTVEIENELNIIHKFIRDKYSKRFPELESLVPNALDYIRTVKELGNSLDKCKNNENLQQILTNATIMVVSVTASTTQGQQLSEEELERLEEACDMALELNASKHRIYEYVESRMSFIAPNLSIIIGASTAAKIMGVAGGLTNLSKMPACNIMLLGAQRKTLSGFSSTSVLPHTGYIYHSDIVQSLPPDLRRKAARLVAAKCTLAARVDSFHESTEGKVGYELKDEIERKFDKWQEPPPVKQVKPLPAPLDGQRKKRGGRRYRKMKERLGLTEIRKQANRMSFGEIEEDAYQEDLGFSLGHLGKSGSGRVRQTQVNEATKARISKTLQRTLQKQSVVYGGKSTIRDRSSGTASSVAFTPLQGLEIVNPQAAEKKVAEANQKYFSSMAEFLKVKGEKSGLMST
partner: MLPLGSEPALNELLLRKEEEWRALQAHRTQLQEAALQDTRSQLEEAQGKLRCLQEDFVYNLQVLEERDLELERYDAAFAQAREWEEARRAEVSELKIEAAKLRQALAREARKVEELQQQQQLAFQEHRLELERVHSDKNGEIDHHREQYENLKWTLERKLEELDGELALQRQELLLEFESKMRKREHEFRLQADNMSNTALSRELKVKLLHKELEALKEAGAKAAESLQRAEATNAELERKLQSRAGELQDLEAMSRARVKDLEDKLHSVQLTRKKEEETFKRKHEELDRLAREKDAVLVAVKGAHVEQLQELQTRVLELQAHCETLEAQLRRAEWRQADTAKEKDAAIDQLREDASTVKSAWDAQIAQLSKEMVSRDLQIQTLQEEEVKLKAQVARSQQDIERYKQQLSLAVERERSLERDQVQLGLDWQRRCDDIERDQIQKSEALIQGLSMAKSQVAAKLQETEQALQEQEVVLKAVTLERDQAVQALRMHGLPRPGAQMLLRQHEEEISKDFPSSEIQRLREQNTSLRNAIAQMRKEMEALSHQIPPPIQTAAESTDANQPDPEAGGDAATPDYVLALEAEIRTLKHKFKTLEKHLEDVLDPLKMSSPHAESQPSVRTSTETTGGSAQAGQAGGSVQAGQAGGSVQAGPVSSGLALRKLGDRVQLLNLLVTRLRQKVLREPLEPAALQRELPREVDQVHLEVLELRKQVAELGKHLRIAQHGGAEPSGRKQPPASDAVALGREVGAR
B3: Proton-coupled zinc antiporter SLC30A2 (Homo sapiens), Q9BRI3 (parent)
chain: MEAKEKQHLLDARPAIRSYTGSLWQEGAGWIPLPRPGLDLQAIELAAQSNHHCHAQKGPDSHCDPKKGKAQRQLYVASAICLLFMIGEVVGGYLAHSLAVMTDAAHLLTDFASMLISLFSLWMSSRPATKTMNFGWQRAEILGALVSVLSIWVVTGVLVYLAVERLISGDYEIDGGTMLITSGCAVAVNIIMGLTLHQSGHGHSHGTTNQQEENPSVRAAFIHVIGDFMQSMGVLVAAYILYFKPEYKYVDPICTFVFSILVLGTTLTILRDVILVLMEGTPKGVDFTAVRDLLLSVEGVEALHSLHIWALTVAQPVLSVHIAIAQNTDAQAVLKTASSRLQGKFHFHTVTIQIEDYSEDMKDCQACQGPSD
partner: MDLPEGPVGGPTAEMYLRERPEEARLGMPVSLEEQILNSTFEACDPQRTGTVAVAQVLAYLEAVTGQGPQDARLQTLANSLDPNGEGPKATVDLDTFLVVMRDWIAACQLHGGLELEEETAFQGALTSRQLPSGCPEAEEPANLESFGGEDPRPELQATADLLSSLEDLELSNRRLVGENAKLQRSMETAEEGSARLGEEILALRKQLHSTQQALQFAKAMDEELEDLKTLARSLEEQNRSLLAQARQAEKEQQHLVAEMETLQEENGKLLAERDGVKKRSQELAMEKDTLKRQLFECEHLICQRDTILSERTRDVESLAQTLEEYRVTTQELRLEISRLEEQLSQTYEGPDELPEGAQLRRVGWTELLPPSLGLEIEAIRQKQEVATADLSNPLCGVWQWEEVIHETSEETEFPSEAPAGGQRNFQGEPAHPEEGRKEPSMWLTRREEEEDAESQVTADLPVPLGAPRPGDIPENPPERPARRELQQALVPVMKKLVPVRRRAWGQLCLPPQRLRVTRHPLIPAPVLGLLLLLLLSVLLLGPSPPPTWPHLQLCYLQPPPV
B4: U4/U6 small nuclear ribonucleoprotein Prp31 (Homo sapiens), Q8WWY3 (parent)
chain: B2 chain
partner: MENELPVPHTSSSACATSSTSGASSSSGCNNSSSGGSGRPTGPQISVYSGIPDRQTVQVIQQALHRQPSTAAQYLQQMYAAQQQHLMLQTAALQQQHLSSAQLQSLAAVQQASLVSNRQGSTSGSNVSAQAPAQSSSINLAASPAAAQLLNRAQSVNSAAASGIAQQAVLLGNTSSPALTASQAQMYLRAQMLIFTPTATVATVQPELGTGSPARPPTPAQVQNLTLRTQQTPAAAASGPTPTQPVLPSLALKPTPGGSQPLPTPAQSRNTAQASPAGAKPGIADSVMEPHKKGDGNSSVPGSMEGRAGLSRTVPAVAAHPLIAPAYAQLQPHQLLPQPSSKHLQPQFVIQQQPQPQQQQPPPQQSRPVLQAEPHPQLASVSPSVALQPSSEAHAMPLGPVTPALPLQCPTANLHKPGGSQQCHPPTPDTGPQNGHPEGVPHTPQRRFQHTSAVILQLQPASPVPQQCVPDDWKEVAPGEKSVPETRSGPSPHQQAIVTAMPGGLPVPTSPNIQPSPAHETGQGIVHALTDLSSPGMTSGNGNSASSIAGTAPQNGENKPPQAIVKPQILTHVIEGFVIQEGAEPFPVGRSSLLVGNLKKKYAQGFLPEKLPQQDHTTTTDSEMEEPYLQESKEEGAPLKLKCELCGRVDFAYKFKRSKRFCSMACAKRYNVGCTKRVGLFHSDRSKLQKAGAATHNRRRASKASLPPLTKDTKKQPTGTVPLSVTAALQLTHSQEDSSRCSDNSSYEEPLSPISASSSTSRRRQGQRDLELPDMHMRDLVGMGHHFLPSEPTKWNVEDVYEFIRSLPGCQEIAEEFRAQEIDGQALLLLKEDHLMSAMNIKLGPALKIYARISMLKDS

Variants of: B1
Details: with BEND7, Q8N7W2-2

| Variant | effect of a mutation on the interaction |
| --- | --- |
| MDNYADLSDTELTTLLRRYNIPHGPVVGSTRRLYEKKIFEYETQRRRLSPPSSSAASSYSFSDLNSTRGDADMYDLPKKEDALLYQSKGYNDDYYEESYFTTRTYGEPESAGPSRAVRQSVTSFPDADAFHHQVHDDDLLSSSEEECKDRERPMYGRDSAYQSITHYRPVSASRSSLDLSYYTTSSSTSFMSSSSSSSSWLTRRAIRPENRAPGAGLGQDRQVPLWGQLLLFLVFVIVLFFIYHFMQAEEGNPF [P183T] | with no effect |
| MDNYADLSDTELTTLLRRYNIPHGPVVGSTRRLYEKKIFEYETQRRRLSPPSSFAASSYSFSDLNSTRGDADMYDLPKKEDALLYQSKGYNDDYYEESYFTTRTYGEPESAGPSRAVRQSVTSFPDADAFHHQVHDDDLLSSSEEECKDRERPMYGRDSAYQSITHYRPVSASRSSLDLSYYPTSSSTSFMSSSSSSSSWLTRRAIRPENRAPGAGLGQDRQVPLWGQLLLFLVFVIVLFFIYHFMQAEEGNPF [S54F] | with no effect |

Variants of: B2
Details: with CCDC57, Q2TAC2-2

| Variant | effect of a mutation on the interaction |
| --- | --- |
| MSLADELLADLEEAAEEEEGGSYGEEEEEPAIEDVQEETQLDLSGDSVKTIAKLWDSKMFAEIMMKIEEYISKQAKASEVMGPVEAAPEYRVIVDANNLTVEIENEVNIIHKFIRDKYSKRFPELESLVPNALDYIRTVKELGNSLDKCKNNENLQQILTNATIMVVSVTASTTQGQQLSEEELERLEEACDMALELNASKHRIYEYVESRMSFIAPNLSIIIGASTAAKIMGVAGGLTNLSKMPACNIMLLGAQRKTLSGFSSTSVLPHTGYIYHSDIVQSLPPDLRRKAARLVAAKCTLAARVDSFHESTEGKVGYELKDEIERKFDKWQEPPPVKQVKPLPAPLDGQRKKRGGRRYRKMKERLGLTEIRKQANRMSFGEIEEDAYQEDLGFSLGHLGKSGSGRVRQTQVNEATKARISKTLQRTLQKQSVVYGGKSTIRDRSSGTASSVAFTPLQGLEIVNPQAAEKKVAEANQKYFSSMAEFLKVKGEKSGLMST [L107V] | with no effect |

Variants of: B3
Details: with kash5_human KASH5, Q8N6L0

| Variant | effect of a mutation on the interaction |
| --- | --- |
| MEAKEKQHLLDARPAIRSYTGSLWQEGAGWIPLPRPGLDLQAIELAAQSNHHCRAQKGPDSHCDPKKGKAQRQLYVASAICLLFMIGEVVGGYLAHSLAVMTDAAHLLTDFASMLISLFSLWMSSRPATKTMNFGWQRAEILGALVSVLSIWVVTGVLVYLAVERLISGDYEIDGGTMLITSGCAVAVNIIMGLTLHQSGHGHSHGTTNQQEENPSVRAAFIHVIGDFMQSMGVLVAAYILYFKPEYKYVDPICTFVFSILVLGTTLTILRDVILVLMEGTPKGVDFTAVRDLLLSVEGVEALHSLHIWALTVAQPVLSVHIAIAQNTDAQAVLKTASSRLQGKFHFHTVTIQIEDYSEDMKDCQACQGPSD [H54R] | with no effect |

Variants of: B4
Details: with PHC2, Q8IXK0-5

| Variant | effect of a mutation on the interaction |
| --- | --- |
| MSLADELLADLEEAAEEEEGGSYGEEEEEPAIEDVQEETQLDLSGDSVKTIAKLWDSKMFAEIMMKIEEYISKQAKASEVMGPVEAAPEYRVIVDANNLTVEIENEVNIIHKFIRDKYSKRFPELESLVPNALDYIRTVKELGNSLDKCKNNENLQQILTNATIMVVSVTASTTQGQQLSEEELERLEEACDMALELNASKHRIYEYVESRMSFIAPNLSIIIGASTAAKIMGVAGGLTNLSKMPACNIMLLGAQRKTLSGFSSTSVLPHTGYIYHSDIVQSLPPDLRRKAARLVAAKCTLAARVDSFHESTEGKVGYELKDEIERKFDKWQEPPPVKQVKPLPAPLDGQRKKRGGRRYRKMKERLGLTEIRKQANRMSFGEIEEDAYQEDLGFSLGHLGKSGSGRVRQTQVNEATKARISKTLQRTLQKQSVVYGGKSTIRDRSSGTASSVAFTPLQGLEIVNPQAAEKKVAEANQKYFSSMAEFLKVKGEKSGLMST [L107V] | with no effect |
